As usually defined, the Kd is the concentration at which binding is half-saturated. The term koff denotes the first-order rate constant of dissociation. Usually kon stands for the second-order rate constant of association. Higher therefore signals faster complex formation.

The source of these data is article PMC5422739.

In experiment [1] the target is tag free LigB12 (amino acids 1,047–1,119 in LigB) (L. interrogans serovar Pomona). Kind of experiment: SPR; Biacore 3000; tag free LigB12 immobilised on CM5 (about 1,000 RU); HTE truncates 0 to 5 μM injected in PBS at 30 μL/min, 25°C; 1:1 Langmuir model. Background: SPR reads the build-up and loss of mass on a sensor chip optically.
Experiment [2] addresses HTE20N (the first 27 residues of HTE20, amino acids 358–384 of HTE) (human) (UniProt P15502). Kind of experiment: ELISA; HTE17-20, HTE20, HTE20N, HTE20C or BSA coated (1 μM/well); GST tagged LigB4 or LigB12 titrated 0 to 10 μM, 1 h at 37°C; HRP anti-GST; KD from a saturation fit of OD630. (In general: In an ELISA, binding on a coated surface is turned into a signal by an enzyme label.)

Experiment [3] deals with HTE18 (18th exon of human tropoelastin) (human). As to the kind of experiment: ELISA; HTE truncates, HTE20 mutants or BSA coated (1 μM/well, 0.1 M NaHCO3 pH 9.4), blocked with 3% BSA in PBS; 5 μM GST tagged LigB4 or LigB12 applied 1 h at 37°C; HRP anti-GST; fold over BSA or percent of wild-type HTE20.
For experiment [4], the target named is HTE19-20 (19th to 20th exon of human tropoelastin) (human). Described as above.
Experiment [5] deals with HTE20 mutant F378A (human) (UniProt P15502). Described as above.
Experiment [6] has as its target HTE20 mutant Y371A (human) (UniProt P15502). The experiment is described as above.
In experiment [7] the target is HTE20 (20th exon of human tropoelastin) (human) (UniProt P15502). The experiment is described as above.
HTE20 (20th exon of human tropoelastin) (human), sequence (P15502 358-412): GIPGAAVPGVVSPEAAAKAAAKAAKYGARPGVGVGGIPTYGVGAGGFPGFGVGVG
Experiment [8] deals with HTE20 mutant F381A (human) (UniProt P15502). The experiment is described as above.
Experiment [9] concerns the target HTE17-20 (17th to 20th exon of human tropoelastin) (human). The experiment is described as above.
In experiment [10] the target is HTE20 mutant R360A (human) (UniProt P15502). The description is as above.
Experiment [11] addresses HTE25-27 (25th to 27th exon of human tropoelastin) (human). The description is as above.
The target in experiment [12] is LigA on the surface of L. biflexa serovar Patoc ligA.
For experiment [13], the target named is LigB12-5-12 chimera (L. interrogans serovar Pomona). As to the kind of experiment: ELISA; tag-free LigB5/LigB12 and LigB7/LigB10 chimeras and wild-type domains coated (1 μM/well); 5 μM histidine tagged HTE17-20, HTE20 or HTE20N applied; anti-His detection.
In experiment [14] the target is LigB12-12-5 chimera (L. interrogans serovar Pomona). The description is as above.
Another experiment has as its target histidine tagged HTE20 (UniProt P15502). Kind of experiment: ELISA. The settings on record: 10 µM His-HTE20 applied to wells coated with LigB12 construct (1 µM/well); detected by anti-His antibodies; parent: est. 0.73; read off a plot.
In the next experiment the target is histidine tagged HTE20N (UniProt P15502). Kind of experiment: ELISA. The following applies: 10 µM His-HTE20N applied to wells coated with LigB12 construct (1 µM/well); detected by anti-His antibodies; parent: est. 1.05; read off a plot.
histidine tagged HTE20N, sequence (P15502 whole entry, looked up): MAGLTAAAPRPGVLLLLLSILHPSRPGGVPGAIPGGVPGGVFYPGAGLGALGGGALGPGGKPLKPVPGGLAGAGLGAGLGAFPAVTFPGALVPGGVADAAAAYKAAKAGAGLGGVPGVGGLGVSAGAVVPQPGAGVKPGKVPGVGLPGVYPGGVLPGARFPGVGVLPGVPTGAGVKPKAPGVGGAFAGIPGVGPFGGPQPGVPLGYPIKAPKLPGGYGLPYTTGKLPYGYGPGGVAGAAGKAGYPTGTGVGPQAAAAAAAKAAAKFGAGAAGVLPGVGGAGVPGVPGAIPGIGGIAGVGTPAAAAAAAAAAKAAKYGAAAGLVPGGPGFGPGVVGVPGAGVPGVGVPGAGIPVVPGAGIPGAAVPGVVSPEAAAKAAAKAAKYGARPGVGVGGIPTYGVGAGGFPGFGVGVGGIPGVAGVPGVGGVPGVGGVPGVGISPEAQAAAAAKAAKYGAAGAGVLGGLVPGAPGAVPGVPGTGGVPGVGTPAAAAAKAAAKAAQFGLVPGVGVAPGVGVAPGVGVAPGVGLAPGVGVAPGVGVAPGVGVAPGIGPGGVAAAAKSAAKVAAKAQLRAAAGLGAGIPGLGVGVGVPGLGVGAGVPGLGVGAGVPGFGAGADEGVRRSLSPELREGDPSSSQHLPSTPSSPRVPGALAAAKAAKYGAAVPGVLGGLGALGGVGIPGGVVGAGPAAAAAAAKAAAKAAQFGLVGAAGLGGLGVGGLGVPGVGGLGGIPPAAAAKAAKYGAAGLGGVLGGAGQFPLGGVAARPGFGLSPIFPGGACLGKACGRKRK

HTE17-20 (17th to 20th exon of human tropoelastin) (human), sequence (P15502 297-438): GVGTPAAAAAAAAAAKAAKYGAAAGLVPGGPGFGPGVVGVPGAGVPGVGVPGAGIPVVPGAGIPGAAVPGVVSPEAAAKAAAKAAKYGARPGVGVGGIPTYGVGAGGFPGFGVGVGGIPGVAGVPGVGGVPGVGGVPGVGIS
HTE20N (the first 27 residues of HTE20, amino acids 358–384 of HTE) (human), sequence (P15502 358-384): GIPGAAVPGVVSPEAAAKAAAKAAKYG
histidine tagged HTE20, sequence (P15502 whole entry, looked up): as the sequence (P15502 whole entry, looked up) above

In the case of “HTE19-20 (19th to 20th exon of human tropoelastin) (domain or fragment)”, in experiment [1], the equilibrium dissociation constant (Kd) was found to be 1340 nM, the dissociation rate constant (koff) came to 0.0043 s⁻¹ and the on-rate (kon) came out at 3100 M⁻¹ s⁻¹.
As to “GST tagged LigB12 (amino acids 1,047–1,119 in LigB) (domain or fragment)”, the Kd in experiment [2] was determined as 860 nM. In addition, the fold binding over BSA (negative control) turned out to be 2 fold in experiment [3]; 4.5 fold in experiment [4]; 4.4 fold in experiment [7]; 5.7 fold in [9]; 3 fold in experiment [11]. Besides, the results for the percent decrease of binding against wild-type HTE20 in [5] and in [10] were 62% and 54%, respectively. Also, the percent of wild-type HTE20 binding in experiment [6] and in experiment [8] was 35% in each case.
On to “HTE17-20 (17th to 20th exon of human tropoelastin) (domain or fragment)”, for which the inhibition of the adhesion of LigA-expressing L. biflexa (Patoc ligA) to WI-38 cells after pre-incubation with HTE17-20, 10 to 0.156 μM; ELISA with hamster anti-L. biflexa sera in experiment [12] amounted to 61%.
For “histidine tagged HTE17-20 (domain or fragment)”, the percent of wild-type LigB12 binding in experiment [13] worked out at 80%; in experiment [14], 90%.
Regarding “GST tagged LigB4 (amino acids 307–403 in LigB) (domain or fragment)”, the dissociation constant Kd in experiment [2] came out at 860 nM. The fold binding over BSA (negative control) in experiment [3] was found to be 2 fold; in experiment [4], 4.5 fold; in experiment [7], 4.4 fold; in experiment [9] it was 5.7 fold. Besides, the results for the percent of wild-type HTE20 binding in experiment [5] and in experiment [10] were 35% and 32%, respectively. In addition, the figures for the percent decrease of binding against wild-type HTE20 in experiment [6] and in experiment [8] were 61% and 54%, respectively.
Turning to “tag free LigB12 (amino acids 1,047–1,119 in LigB) A1065K”, the results for the response in the experiment with histidine tagged HTE20 and with histidine tagged HTE20N were 0.11 OD630 and 0.09 OD630, respectively.
